Data published in US20120039802A1 (published 2012).
Ends that are not written are not given here.

B1: 547-H03 peptide-displaying phage (SEQ ID NO: 095) (peptide)
peptide: AGETFCSGWPTFECMQWGT
B2: 552-F02 peptide-displaying phage (SEQ ID NO: 092) (peptide)
peptide: AGMTLCAGPPTFECYEVGT
B3: 545-B12 peptide-displaying phage (SEQ ID NO: 085) (peptide)
peptide: AGSYWCSGPPTFMCRYEGT
B4: 561-C08 peptide-displaying phage (SEQ ID NO: 010) (peptide)
peptide: GSFNICPYQWCTLWAP
B5: 550-G08 peptide-displaying phage (SEQ ID NO: 081) (peptide)
peptide: AGYFHCSGSPWFQCDYYGT
B6: 545-C11 peptide-displaying phage (SEQ ID NO: 367) (peptide)
peptide: GSFAPCGWPSFAIDCIAEAP
B7: 331-G06 peptide-displaying phage (SEQ ID NO: 078) (peptide)
peptide: AGNWICTGPPSFGCWYHGT
B8: 552-G11 peptide-displaying phage (SEQ ID NO: 080) (peptide)
peptide: AGYWDCKGPPHFFCEWHGT
B9: 552-G03 peptide-displaying phage (SEQ ID NO: 079) (peptide)
peptide: AGYWSCAGPPMFMCTWQGT
B10: 552-A01 peptide-displaying phage (SEQ ID NO: 083) (peptide)
peptide: AGWSDCLGPPQFTCVHWGT
B11: 548-C06 peptide-displaying phage (SEQ ID NO: 084) (peptide)
peptide: AGTMYCLGPPTFICQQYGT
B12: 550-A08 peptide-displaying phage (SEQ ID NO: 097) (peptide)
peptide: AGDFICQGPPSFVCTNIGT
B13: 548-C10 peptide-displaying phage (SEQ ID NO: 100) (peptide)
peptide: GSEFECTGWPEFRCYEYAP
B14: 549-F06 peptide-displaying phage (SEQ ID NO: 086) (peptide)
peptide: AGSTDCRGHPTFECWGWGT
B15: 545-E04 peptide-displaying phage (SEQ ID NO: 093) (peptide)
peptide: AGETKCSGPPYFYCWMEGT
B16: 465-C10 peptide-displaying phage (SEQ ID NO: 101) (peptide)
peptide: GSILYCINRNDPQCPYTAP
B17: 567-C08 peptide-displaying phage (SEQ ID NO: 009) (peptide)
peptide: GSLIICWWSWCDKQAP
B18: 549-G01 peptide-displaying phage (SEQ ID NO: 368) (peptide)
peptide: GSTKVCHEKWNQLFCHNQAP
B19: 552-F01 peptide-displaying phage (SEQ ID NO: 087) (peptide)
peptide: AGSSPCKGWPTFECYFYGT
B20: 549-D02 peptide-displaying phage (SEQ ID NO: 091) (peptide)
peptide: AGNYWCSGPPSFICHAVGT
B21: 548-D08 peptide-displaying phage (SEQ ID NO: 090) (peptide)
peptide: AGPWKCTGPPTFSCIQFGT
B22: 545-E05 peptide-displaying phage (SEQ ID NO: 094) (peptide)
peptide: AGETFCVGNPSFECWSWGT
B23: 547-H12 peptide-displaying phage (SEQ ID NO: 088) (peptide)
peptide: AGSIACTGWPYFSCIDLGT
B24: 550-F11 peptide-displaying phage (SEQ ID NO: 089) (peptide)
peptide: AGQFYCSGPPTFQCIMIGT
modifications: not fully specified (bridges); cysteine pairing not given here
B25: 550-G07 peptide-displaying phage (SEQ ID NO: 098) (peptide)
peptide: AGAFFCSGPPTFMCSLYGT
B26: 551-A05 peptide-displaying phage (SEQ ID NO: 099) (peptide)
peptide: AGWGWCSGPPMFMCTEYGT
B27: 552-G09 peptide-displaying phage (SEQ ID NO: 096) (peptide)
peptide: AGEIFCVGPPTFTCMWTGT

Legend:
[1] = molecular target: T1, cMet-Fc fusion protein (extracellular domain of the cMet receptor expressed as an Fc-fusion protein) (human, UniProt P08581 25-932); assay: phage ELISA on cMet-Fc, competitor HGF 500 ng/mL
T1 construct: extracellular domain; also called soluble cMet-Fc-fusion protein; soluble cMet receptor; not shown: Fc part
Experimental: (§1) These assays were conducted using the peptide-displaying phage discovered from the initial selection and screening campaigns using the first generation peptide libraries. Briefly, 96-well plates were coated overnight at 4 C with 0.5 μg/mL of cMet-Fc fusion protein or TRAIL-Fc fusion protein (background). The plates were blocked for 2 hours at 37 C with 3% BSA in PBST. […] This was followed by an addition of 30 μL of peptide-displaying phage overnight culture to each well. The plates were incubated for 2 hours at room temperature, washed with PBST and cMet-binding peptide-displaying phage was detected using an HRP-conjugated anti-M13 antibody.

[2] = molecular target: T1, cMet-Fc fusion protein (extracellular …); assay: phage ELISA, cMet-Fc vs TRAIL-Fc
Experimental: Protein phage ELISAs using peptide-displaying phage isolates from the various selection campaigns were performed to determine specificity of the peptides for cMet versus an unrelated Fc-fusion protein (TRAIL-Fe). Briefly, 384-well plates were coated overnight at 4 C with 0.5 μg/mL of cMet-Fc fusion protein or TRAIL-Fc fusion protein (background). The plates were blocked for 2 hours 37 C with 3% (w/v) BSA in PBS containing 0.05% (v/v) Tween-20 (PBST). The plates were washed with PBST and 100 μL of peptide-displaying phage were added to each well. The plates were incubated for 2 hours at room temperature and washed with PBST. cMet-binding peptide-displaying phage were detected using an HRP-conjugated anti-M13 antibody.

[3] = molecular target: T2, human cMet expressed on 3T3 cells (human, UniProt P08581 25-1390); assay: whole cell phage ELISA, 3T3 human cMet vs 3T3
T2 construct: whole, on cells; cells fixed with glutaraldehyde; also called cell surface-expressed human cMet; 3T3 cells that over-express human cMet
Experimental: Whole cell ELISAs were performed using 3T3 cells that over-express human cMet. […] Briefly, 96-well plates were seeded with 10⁵ cells per well. The plates were centrifuged for 5 minutes at 1600 rpm to pellet the cells. The resulting cell layer was fixed with 0.1% (v/v) glutaraldehyde for 12 minutes at 37 C. […] Peptide-displaying phage also were blocked in the above solution for 1 hour at 37 C. 100 μL of blocked phage was then added to each well and the plates were incubated for 1 hour at room temperature. The plates were washed with PBST. cMet-binding peptide-displaying phage were detected using an HRP-conjugated anti-M13 antibody.

[4] = molecular target: T1, cMet-Fc fusion protein (extracellular …); assay: phage ELISA on cMet-Fc, competitor HGF 100 ng/mL
Experimental: as §1

T1 sequence (P08581 25-932): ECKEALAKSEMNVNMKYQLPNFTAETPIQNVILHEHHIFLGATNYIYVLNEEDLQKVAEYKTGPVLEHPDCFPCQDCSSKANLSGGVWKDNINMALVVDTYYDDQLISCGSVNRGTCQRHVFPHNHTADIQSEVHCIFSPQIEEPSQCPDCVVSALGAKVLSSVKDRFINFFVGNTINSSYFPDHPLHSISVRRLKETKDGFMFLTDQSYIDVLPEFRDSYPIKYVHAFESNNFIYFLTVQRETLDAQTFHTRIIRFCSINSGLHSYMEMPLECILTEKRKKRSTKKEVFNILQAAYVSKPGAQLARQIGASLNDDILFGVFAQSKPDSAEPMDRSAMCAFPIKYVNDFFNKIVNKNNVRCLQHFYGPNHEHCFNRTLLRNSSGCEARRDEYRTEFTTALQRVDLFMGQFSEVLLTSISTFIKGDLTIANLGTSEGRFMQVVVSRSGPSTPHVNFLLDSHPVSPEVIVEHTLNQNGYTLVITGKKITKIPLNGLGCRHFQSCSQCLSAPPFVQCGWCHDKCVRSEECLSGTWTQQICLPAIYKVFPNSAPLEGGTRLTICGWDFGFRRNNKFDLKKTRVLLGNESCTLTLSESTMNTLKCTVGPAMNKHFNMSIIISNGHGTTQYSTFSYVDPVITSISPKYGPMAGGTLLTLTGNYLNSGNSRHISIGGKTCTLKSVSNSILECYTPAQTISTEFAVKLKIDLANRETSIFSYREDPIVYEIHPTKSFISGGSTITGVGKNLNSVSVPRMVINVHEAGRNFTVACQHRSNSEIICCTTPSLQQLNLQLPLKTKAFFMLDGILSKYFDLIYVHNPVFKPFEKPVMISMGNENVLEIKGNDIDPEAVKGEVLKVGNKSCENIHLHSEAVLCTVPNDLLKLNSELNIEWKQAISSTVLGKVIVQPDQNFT
T2 sequence (P08581 25-1390): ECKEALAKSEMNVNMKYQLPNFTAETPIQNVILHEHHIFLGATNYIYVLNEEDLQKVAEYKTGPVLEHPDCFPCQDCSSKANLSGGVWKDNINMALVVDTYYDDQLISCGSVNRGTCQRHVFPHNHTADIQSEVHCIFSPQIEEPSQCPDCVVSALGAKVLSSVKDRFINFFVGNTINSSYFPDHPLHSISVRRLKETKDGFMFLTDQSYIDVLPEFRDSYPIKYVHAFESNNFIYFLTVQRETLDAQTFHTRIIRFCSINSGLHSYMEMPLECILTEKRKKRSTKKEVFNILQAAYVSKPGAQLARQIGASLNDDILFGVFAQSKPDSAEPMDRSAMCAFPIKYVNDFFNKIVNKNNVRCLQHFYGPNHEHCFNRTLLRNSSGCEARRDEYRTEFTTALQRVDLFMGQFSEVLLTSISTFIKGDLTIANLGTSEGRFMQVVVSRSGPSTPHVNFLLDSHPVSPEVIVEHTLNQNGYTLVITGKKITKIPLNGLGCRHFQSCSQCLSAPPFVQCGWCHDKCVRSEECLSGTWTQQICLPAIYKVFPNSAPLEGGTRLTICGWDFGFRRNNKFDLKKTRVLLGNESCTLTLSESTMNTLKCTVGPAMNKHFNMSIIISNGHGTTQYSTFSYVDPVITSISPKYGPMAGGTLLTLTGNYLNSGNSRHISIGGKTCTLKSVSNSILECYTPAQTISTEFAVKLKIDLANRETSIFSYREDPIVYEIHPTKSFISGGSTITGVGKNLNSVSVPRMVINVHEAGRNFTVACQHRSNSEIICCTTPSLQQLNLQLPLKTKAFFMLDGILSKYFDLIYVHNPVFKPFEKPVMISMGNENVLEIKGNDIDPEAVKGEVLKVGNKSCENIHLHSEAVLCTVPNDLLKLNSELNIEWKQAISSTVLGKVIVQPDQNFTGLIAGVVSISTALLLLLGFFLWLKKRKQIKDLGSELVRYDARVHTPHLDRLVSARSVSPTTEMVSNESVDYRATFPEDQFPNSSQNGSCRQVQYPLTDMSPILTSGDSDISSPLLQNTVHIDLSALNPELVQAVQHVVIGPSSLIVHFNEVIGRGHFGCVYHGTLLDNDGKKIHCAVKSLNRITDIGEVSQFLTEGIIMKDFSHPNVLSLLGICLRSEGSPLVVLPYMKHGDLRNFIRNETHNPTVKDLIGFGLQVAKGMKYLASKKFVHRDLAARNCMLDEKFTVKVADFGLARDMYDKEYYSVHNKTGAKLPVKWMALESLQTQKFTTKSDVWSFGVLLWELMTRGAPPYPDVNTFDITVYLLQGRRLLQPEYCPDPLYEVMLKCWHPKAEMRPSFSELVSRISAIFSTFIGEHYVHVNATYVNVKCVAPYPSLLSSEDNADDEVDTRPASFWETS

| Binder | % of binding in the absence of HGF [1] | Protein ELISA (fold over background) [2] | WC ELISA (fold over background) [3] | % of binding in the absence of HGF [4] |
| --- | --- | --- | --- | --- |
| B1 | 53% | 16.2 fold | 1.23 fold | 109% |
| B2 | 40% | 12.3 fold | 1.23 fold | 60% |
| B3 | 42% | 17.1 fold | 1.27 fold | 51% |
| B4 | 96% | 3 fold | 1.37 fold | 92% |
| B5 | 58% | 9.1 fold | 1.4 fold | 79% |
| B6 | 50% | 7.7 fold | 1.3 fold | 77% |
| B7 | 51% | 4.7 fold | 1.4 fold | 59% |
| B8 | 41% | 7.4 fold | 1.23 fold | 55% |
| B9 | 83% | 10.7 fold | 1.27 fold | 101% |
| B10 | 81% | 3.9 fold | 1.33 fold | 76% |
| B11 | 77% | 13 fold | 1.23 fold | 94% |
| B12 | 51% | 8.4 fold | 1.27 fold | 52% |
| B13 | 57% | 8.4 fold | 1.2 fold | 69% |
| B14 | 40% | 5.2 fold | 1.3 fold | 96% |
| B15 | 17% | 16.3 fold | 1.23 fold | 48% |
| B16 | 71% | 3 fold | 1.27 fold | 95% |
| B17 | 94% | 3.8 fold | 1.27 fold | 85% |
| B18 | 18% | 7 fold | 1.27 fold | 62% |
| B19 | 37% | 4.8 fold | 1.3 fold | 56% |
| B20 | 36% | 8.9 fold | 1.27 fold | 47% |
| B21 | 62% | 19.5 fold | 1.23 fold | 97% |
| B22 | 32% | 10.3 fold | 1.27 fold | 70% |
| B23 | 81% | 5.6 fold | 1.1 fold | 92% |
| B24 | 23% | 12.4 fold | 1.23 fold | 58% |
| B25 | 36% | 6.2 fold | 1.27 fold | 63% |
| B26 | 42% | 4 fold | 1.3 fold | 68% |
| B27 | 68% | 9.7 fold | 1.27 fold | 98% |
